# The DeepSol protein solubility set
# Test: soluble on expression in E. coli; label from the status in PepcDB or PDB records
row,Sequence,soluble on expression in E. coli
1,SLSMKLLIADDEDTIRNGIAKYIKLHTDRFSQIYLAENGQQALDIILQYQPDMMLLDVQMPLKTGLEVLQEAQKLSLVPKTIILSGYDDFEYARKALRYGAKDYLLKPCRSSEILEAINKLVQEQLGTKEG,not soluble
2,MKKNTSKTTMRINKQDALCTPHSHDPRDLQNMLDGGEYAPFVSPPMLESNFIQVNRRGESIYLHNRANWVTVGICFSSSTHKIPNVMLLAHLTPGAQKDTETLFKSLLTSPPAEKLVLTRFLPLQFVTLSVHDAENMSLKVKLVSGRAYYLQLCTSAYKQDTLFSQWVALISLLNQEKAKVSKVSEVSSLSGITNSTDITGSMDVTDVTTFTAILTPYMYAGTGPEHVRDSIDFPEFTDITDITDVTDLPENEVPEVPDVRIVTEVIEVREATEVTDSSDITNCSGVTVVFENNDLIRAKQEEKEKLKNILKPGCLQDTKSKRYFQTTLTPVESEANTSKEMKDKTSEEKMPDFQSTALKAEESRSLRTESNTSVLSPHIKSPSNFLKLVPHLSAPFSRE,soluble
3,VPVPPAADHKGWDFVEGYFHQFFLTKKESPLLTQETQTQLLQQFHRNGTDLLDMQMHALLHQPHCGVPDGSDTSISPGRCKWNKHTLTYRIINYPHDMKPSAVKDSIYNAVSIWSNVTPLIFQQVQNGDADIKVSFWQWAHEDGWPFDGPGGILGHAFLPNSGNPGVVHFDKNEHWSASDTGYNLFLVATHEIGHSLGLQHSGNQSSIMYPTYWYHDPRTFQLSADDIQRIQHLYGEKCSSDIP,soluble
4,GSHMMGAKMAESLRLTCLACGQANKVPSDRLAAGPKCGICGAGLITGKVAGIDPAILARAERDDLPLLVDFWAPWCGPCRQMAPQFQAAAATLAGQVRLAKIDTQAHPAVAGRHRIQGIPAFILFHKGRELARAAGARPASELVGFVRGKLGARA,soluble
5,MSLGDLEQKIIAMDLWHLALPVVSARDHGIGRVEGSCEIVVLRLVAEGGAEGFGEASPWAVFTGTPEASYAALDRYLRPLVIGRRVGDRVAIMDEAARAVAHCTEAKAALDSALLDLAGRISNLPVWALLGGKCRDTIPLSCSIANPDFDADIALMERLRADGVGLIKLKTGFRDHAFDIMRLELIARDFPEFRVRVDYNQGLEIDEAVPRVLDVAQFQPDFIEQPVRAHHFELMARLRGLTDVPLLADESVYGPEDMVRAAHEGICDGVSIKIMKSGGLTRAQTVARIAAAHGLMAYGGDMFEAGLAHLAGTHMIAATPEITLGCEFYQASYFLNEDILETPFRVEAGQVIVPDGPGLGARADPEKLEHYAVRRSGEGHHHHHH,soluble
6,NTLGMALYADGGLMASKPYAASGKYIHRMSNFCQSCYYNPNDLLGEKACPFNALYWNFLHQNQEKLKDNPRLRYAYMNWQKMDFDKQKKTIHKAQRILADLDSANL,not soluble
7,GEVDMTIRGNITYSKNEVLEKDEENQVYSYLYQKGYRVDQVKGLIAEGLFADYDDIRTSPKQEFGTVQPGDIKYKDVNGDGVVNDNDKVAIGATTTPNLVYGIGASFAWKGIDVNVHFQGAGKSTFPIYGKCVYAFSESDWGNIFKDMISDRWVDSETAAKLGLHANENPNATYPRLTYGENKNNQQTSTYWMRDGRYIRLKNLDIGYTLPKSIVNKLHFNNIRIYIAGSNLITWSKFKTWDPETGNPRGEAYPLTKSVTMGLSVNL,not soluble
8,MAHHHHHHMSRMPSTAARSQPYAFGPEGVMLDGGASEGRQNSVEALLAYCAARVAENPSWRTASWQQAGASNASAFRVPVSPRYLANASYAATGSPLCLRAGRIYLTDARIRAGIAEFQAAGLTVLPLTDDVLSRPSSRASKATVRVVPAMAVLLNGAWIATHFFHLVTDALEALRSAYQTWQDGVLLRIPTQTVLLHQPESNWMDRRGDTHGKMELSAALANAFSSPELARGSPYNSSFLFRSQSRHCAELEANATATMASPPPPRRQSPATVSTLCFCDGLLVTTHRLPVLERDILYGIQDWAARQFRASPYGVNRSVQEMERLRLQHALLSSTSTLWSIGTLTAPALSLSYKPRALFVHRTSRVIANASRYAGWMRAAGFRVEEVYLEKHTAAQQYHLGRYADIVVGMHGLGIGHAMWMERSPPRCRTVIEFRPWVIASMPTQPILILEGAMHYHFVTIPPIDVRFGPSVAHPAEERELLLSSARMVNAFRYPSFTDQIAIYDDERVKGVIADVRQHLERCLPP,not soluble
